Test results published in patent US20040204348A1.
Bridges are numbered along the chain shown (N, C = ends). L15 (R1 : phenyl) = linker L15: -CO-CH2-NH-CO-CH2-CH2-CH(CO-NH-CH2-CO-NH-R1)-NH- with R1 = phenyl (anilide)

Target: recombinant soluble uPAR (suPAR), Q03405
Assay: SPR (Biacore 3000), competition with scuPA
Settings: remark: other sources report otherwise

Chain of recombinant soluble uPAR (suPAR), Q03405 (Q03405 23-299 limits assumed): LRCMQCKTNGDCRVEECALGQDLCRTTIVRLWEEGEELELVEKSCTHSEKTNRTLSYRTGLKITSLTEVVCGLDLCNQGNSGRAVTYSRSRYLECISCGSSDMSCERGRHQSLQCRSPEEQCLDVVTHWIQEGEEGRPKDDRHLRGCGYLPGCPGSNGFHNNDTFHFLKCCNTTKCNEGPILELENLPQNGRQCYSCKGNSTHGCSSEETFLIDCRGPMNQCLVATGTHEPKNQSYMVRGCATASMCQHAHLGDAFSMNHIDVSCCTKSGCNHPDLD

B1: Å36 (peptide)
peptide: VSNKYFSNIHW
modifications: linker N-C via L15 (R1 : phenyl); also: cyclised by linker L15 between X1 N and X11 carbonyl
A Kd of 4 nM was found for B1 in this work.
